Key:
Complement C3b (human) [1] = target: Complement C3b (human) (UniProt P01024); assay: ELISA; competition; heparin-binding plates coated with 25 ug/ml human C3b alone; FH fixed at 16 nM with rFHR-5 at 7-221 nM (dimer), 2 h room temperature, 5% BSA, 100 mM NaCl, 50 mM NaOAc, pH 7.3; bound FH detected with monoclonal anti-FH; FH binding without rFHR-5 = 100%
Complement C3b (human) [2] = target: Complement C3b (human) (UniProt P01024); assay: ELISA; competition; heparin-binding plates coated with 25 ug/ml human C3b together with 40 ug/ml kidney heparan sulfate; FH fixed at 16 nM with rFHR-5 at 7-221 nM (dimer), 2 h room temperature, 5% BSA, 100 mM NaCl, 50 mM NaOAc, pH 7.3; bound FH detected with monoclonal anti-FH; FH binding without rFHR-5 = 100%

percent of FH binding to surface C3b left at a 1:1 molar ratio of rFHR-5 and FH (Complement C3b (human) [1]): 80%
percent of FH binding to surface C3b with kidney HS left at a 1:1 molar ratio of rFHR-5 and FH (Complement C3b (human) [2]): 50%
B1: Recombinant complement factor H-related protein 5 (natural protein)
chain: EGTLCDFPKIHHGFLYDEEDYNPFSQVPTGEVFYYSCEYNFVSPSKSFWTRITCTEEGWSPTPKCLRMCSFPFVKNGHSESSGLIHLEGDTVQIICNTGYSLQNNEKNISCVERGWSTPPICSFTKGECHVPILEANVDAQPKKESYKVGDVLKFSCRKNLIRVGSDSVQCYQFGWSPNFPTCKGQVRSCGPPPQLSNGEVKEIRKEEYGHNEVVEYDCNPNFIINGPKKIQCVDGEWTTLPTCVEQVKTCGYIPELEYGYVQPSVPPYQHGVSVEVNCRNEYAMIGNNMITCINGIWTELPMCVATHQLKRCKIAGVNIKTLLKLSGKEFNHNSRIRYRCSDIFRYRHSVCINGKWNPEVDCTEKREQFCPPPPQIPNAQNMTTTVNYQDGEKVAVLCKENYLLPEAKEIVCKDGRWQSLPRCVESTAYCGPPPSINNGDTTSFPLSVYPPGSTVTYRCQSFYKLQGSVTVTCRNKQWSEPPRCLDPCVVSEENMNKNNIQLKWRNDGKLYAKTGDAVEFQCKFPHKAMISSPPFRAICQEGKFEYPICE

Reference: article PMC8313009
